From the MegaScale stability set (Tsuboyama et al. 2023)

B1: EEHEE_rd4_0469 (parent)
chain: ITIHVNGVTYHFDNPEEAEKFAQKMAKTYQLKMEIHNGEFHME

Variants of: B1
Assay: folding stability dG (cDNA display proteolysis); higher = more stable
Conditions: PBS, room temperature

Folding stability dG [kJ/mol]: each site, then its substitutions
H41: S 3.6, L 3.89, E 2.92, G 2.63, Y 7.08, R 3.55, W 6.56, Q 2.85, K 3.16, T 3.59, P 2.46, A 2.61, M 3.73, C 7.18, D 2.92, N 2.76, F 6.48, V 4.65, I 4.53
M33: S 1.8, Q 1.47, E 2.84, I 6.71, W 5.68, G 1.89, T 2.78, L 6, K -1.7, C 11, F 4.95, N 1.24, A 2.4, V 6.12, Y 4.65, P 1.54, H 1.23, D 2.33
G38: F 4.03, D 3, K 3.01, W 3.82, S 2.92, E 3.22, Y 3.64, H 3.7, A 3.24, M 3.34, N 3.58, T 3, Q 2.78, C 9.25, L 3.84, V 2.62, R 2.55, P 2.58, I 3.48
Y29: W 3.32
F40: E 2.52, Q 3.15, N 2.97, T 3.35, P 2.89, I 6.71, A 3.11, K 2.77, W 7.38, H 3.18, S 2.95, Y 5.46, G 2.68, D 2.42, C 7.48, L 5.72, M 5.13, R 2.61, V 4.99
K32: R 3.55, I 6.93, Q 6.06, P 4.54, L 6.37, Y 6.63, T 6.32, N 5.35, W 6.45, F 6.04, V 6.77, A 5.73, G 4.74, D 5.5, S 5.82, E 6.2, M 6.02, H 6.18
H36: M 3.95, L 5, W 5.19, Q 3.89, D 2.97, I 6.95, C 7.05, N 3.78, K 5.35, S 3.48, G 2.51, F 4.97, R 6.22, V 5.67, T 3.87, Y 5.28, A 3.33, P 2.09, E 3.85
L31: Y 4.77, K 2.9, T 3.24, S 3.21, A 3.34, N 4.19, W 3.47, I 4.79, R 0.895, H 4.12, V 5.34, G 4.25, C 9.61, Q 3.49, M 4.23, E 5.41, F 4.61, D 5.44, P 4.74
E34: T 6.34, Q 4.15, H 5.91, S 5.38, R 5.09, G 3.25, D 3.09, N 4.42, W 6.46, P 0.874, L 5.29, C 10.2, M 5.56, V 7.99, F 7.62, I 7, K 4.89, A 4.32, Y 7.43
I35: D 2.85, G 3.02, F 5.04, M 3.97, R 2.18, A 3.02, Q 3.44, V 4.31, W 4.45, H 3.03, Y 5.17, S 3.2, E 3.53, L 4.46, T 3.36, K 2.69, N 2.87, P 2.35
E43: M 7.08, L 6.72, T 7.19, W 7.62, R 6.51, P 3.42, Q 5.07, G 4.75, F 8.39, N 4.9, C 9.66, V 9.87, H 6.12, D 3.72, Y 8.13, A 5, K 6.29, S 5.61, I 8.47
E39: T 3.5, Y 3.91, P 3.36, S 3.69, F 3.71, H 4.84, R 3.19, G 3.16, I 4.87, C 7.08, M 3.87, Q 4.65, W 4.09, D 4.05, V 4.49, K 3.46, N 3.39, L 3.05, A 4.26
N37: K 3.39, I 4.6, R 3, S 3.48, L 4.55, M 4.29, V 3.77, F 5, E 3.48, W 4.9, Q 3.68, P 2.66, A 3.6, G 4.28, Y 4.77, H 4.66, T 3.21, D 4.25
M42: Y 4.27, P 3.16, W 3.82, A 3.51, R 2.87, T 2.75, E 2.57, G 2.82, L 5.46, I 4.02, K 2.97, V 3.33, S 2.99, F 5.2, N 2.67, H 2.97, Q 2.77, D 3.04
Q30: H 5.98, D 4.52, Y 4.77, M 3.69, R 3.41, G 6.28, A 4.27, I 2.96, S 3.38, N 4.89, P 6.42, F 4.76, K 4.71, V 2.88, L 3.57, W 4.63, E 5.05, T 2.92
